Reference: US20210347873A1 (SHANGHAI PHARMAEXPLORER, published 2021)

Experiments:
human APRIL protein [1] = target: T1, human APRIL protein (human, UniProt O75888 105-250, limits assumed); assay: ELISA, coated APRIL; antibody 0.107 nM
T1 construct: Bought protein; also called recombinant APRIL protein
T1 sequence (looked up): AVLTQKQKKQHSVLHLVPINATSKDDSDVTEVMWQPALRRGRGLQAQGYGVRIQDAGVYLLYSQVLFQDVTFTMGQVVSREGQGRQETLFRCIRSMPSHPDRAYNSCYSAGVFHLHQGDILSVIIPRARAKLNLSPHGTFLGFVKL
Description: (§1) To test whether the BLyS antibody cross-reacted with human APRIL protein, APRIL protein (purchased from R & D Systems) was first diluted to a final concentration of 1.0 μg/mL with PBS, and then 50 μL of which per well was aliquoted into a 96-well ELISA plate, and the plate was subsequently sealed with plastic film and incubated at 4° C. overnight. On the next day the plate was rinsed four times with the plate washing buffer [PBS buffer containing 0.0500 (v/v) Tween20] and a blocking solution [PBS buffer containing 0.05 (v/v) Tween20 and 1 (w/w) BSA] was added, then the protein was blocked at 37° C. for 2 hours. The blocking solution was removed and 100 μL per well of the lead antibodies prepared in Embodiment 1 and 2 were added in. After incubation for 1 hour at 37° C., the plate was rinsed four times with the plate washing buffer [PBS buffer containing 0.05 (v/v) Tween20]. HRP-labeled (horseradish peroxidase) secondary antibody (purchased from Sigma) was added in and incubated at 37° C. for 1 hour. The plate was then rinsed four times with the plate washing buffer [PBS buffer containing 0.050 (v/v) Tween20]. 100 μL of TMB substrate was aliquoted into each well and after incubation at room temperature for 5 minutes, 100 μL of stop solution (1.0 N HCl) was aliquoted into each well. A₄₅₀ₙₘ values were read via an ELISA plate reader (SpectraMax M5e purchased from Molecular Devices) and the results were shown in FIGS. 6A-6B and Table 11. […] As used herein, the IgG control is human IgG and the data in the table is GD number at 450 nm.

human APRIL protein [2] = target: T1, human APRIL protein; assay: ELISA, coated APRIL; antibody 0 nM (blank)
Description: as §1

human APRIL protein [3] = target: T1, human APRIL protein; assay: ELISA, coated APRIL
Description: To test whether the BLyS antibody cross-reacted with human APRIL protein, APRIL protein (purchased from R & D Systems) was first diluted to a final concentration of 1.0 μg/mL with PBS, and then 50 μL of which per well was aliquoted into a 96-well ELISA plate, and the plate was subsequently sealed with plastic film and incubated at 4° C. overnight. On the next day the plate was rinsed four times with the plate washing buffer [PBS buffer containing 0.0500 (v/v) Tween20] and a blocking solution [PBS buffer containing 0.05 (v/v) Tween20 and 1 (w/w) BSA] was added, then the protein was blocked at 37° C. for 2 hours. The blocking solution was removed and 100 μL per well of the lead antibodies prepared in Embodiment 1 and 2 were added in. After incubation for 1 hour at 37° C., the plate was rinsed four times with the plate washing buffer [PBS buffer containing 0.05 (v/v) Tween20]. HRP-labeled (horseradish peroxidase) secondary antibody (purchased from Sigma) was added in and incubated at 37° C. for 1 hour. The plate was then rinsed four times with the plate washing buffer [PBS buffer containing 0.050 (v/v) Tween20]. […] A₄₅₀ₙₘ values were read via an ELISA plate reader (SpectraMax M5e purchased from Molecular Devices) and the results were shown in FIGS. 6A-6B and Table 11. […]

human APRIL protein [4] = target: T1, human APRIL protein; assay: ELISA, coated APRIL; antibody 66.7 nM
Description: as §1

human APRIL protein [5] = target: T1, human APRIL protein; assay: ELISA, coated APRIL; antibody 0.534 nM
Description: as §1

human APRIL protein [6] = target: T1, human APRIL protein; assay: ELISA, coated APRIL; antibody 13.3 nM
Description: as §1

human APRIL protein [7] = target: T1, human APRIL protein; assay: ELISA, coated APRIL; antibody 0.00427 nM
Description: as §1

human APRIL protein [8] = target: T1, human APRIL protein; assay: ELISA, coated APRIL; antibody 0.0213 nM
Description: as §1

human APRIL protein [9] = target: T1, human APRIL protein; assay: ELISA, coated APRIL; antibody 2.67 nM
Description: as §1

OD450 nm (human APRIL protein [1]): 0.0588 | OD450 nm (human APRIL protein [2]): 0.053 | binding result (human APRIL protein [3]): no binding (tested: 66.7 nM) | OD450 nm (human APRIL protein [4]): 0.264 | OD450 nm (human APRIL protein [5]): 0.058 | OD450 nm (human APRIL protein [6]): 0.0898 | OD450 nm (human APRIL protein [7]): 0.0553 | OD450 nm (human APRIL protein [8]): 0.0563 | OD450 nm (human APRIL protein [9]): 0.0673
B1: 67A2E1D10 (antibody, V domains shown)
VH: EVQLQQSGAELVKPGASVKLSCTASGFNIKNYYMHWVKQRTEEGLEWIGRIDPEDGETKYAPKFQAKATITADTSSNTAYLQLSSLTSEDTAVYFCARKGYYGNYGAWFAYWGQGTLVTVSA
VL: DIQMTQSPASLSVSVGETVTITCRASEDLYSNLAWYQQKQGKSPQLLVYAATFLADGVPSRFSGSGSGTQYSLKINSLQSEDFGNYYCQHFWGTPPTFGGGTKLEIK
notes: Mouse hybridoma antibody purified on Protein G
